Source: patent publication US11028172 (LEPU BIOPHARMA, dated 2021)

T1: human TIGIT-His protein (human, UniProt Q495A1 22-141)
T1 construct: Recombinant protein; also called human TIGIT-his tag; hTIGIT-His
T1 sequence (looked up): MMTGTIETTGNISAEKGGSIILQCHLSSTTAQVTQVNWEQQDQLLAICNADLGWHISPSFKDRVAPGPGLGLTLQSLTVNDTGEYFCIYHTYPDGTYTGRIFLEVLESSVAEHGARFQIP

T2: biotin-labeled human TIGIT protein (human, UniProt Q495A1 22-141, biotin-labeled (sites not given))
T2 construct: also called recombinant human TIGIT
T2 sequence (looked up): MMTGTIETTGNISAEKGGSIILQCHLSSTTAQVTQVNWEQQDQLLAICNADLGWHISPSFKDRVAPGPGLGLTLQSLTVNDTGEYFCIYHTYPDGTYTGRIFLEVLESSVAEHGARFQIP

T3: mouse TIGIT protein (mouse, UniProt P86176 29-148, limits assumed)
T3 construct: Recombinant protein coated on the plate
T3 sequence (looked up): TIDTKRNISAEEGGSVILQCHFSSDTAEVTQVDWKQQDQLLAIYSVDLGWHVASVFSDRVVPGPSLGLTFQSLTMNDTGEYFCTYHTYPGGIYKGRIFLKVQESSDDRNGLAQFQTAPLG

T4: human TIGIT expressed on cells (human, UniProt Q495A1 22-244)
T4 sequence (looked up): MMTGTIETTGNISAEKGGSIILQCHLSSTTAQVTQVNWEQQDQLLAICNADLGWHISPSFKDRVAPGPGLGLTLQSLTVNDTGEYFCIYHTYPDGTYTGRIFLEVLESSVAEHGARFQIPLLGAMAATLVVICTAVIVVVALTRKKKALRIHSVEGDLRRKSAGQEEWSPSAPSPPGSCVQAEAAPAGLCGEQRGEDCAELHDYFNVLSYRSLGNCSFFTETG


Legend:
human TIGIT-His protein [1] = biological target: T1, human TIGIT-His protein; assay: SPR (Biacore) affinity ranking, human TIGIT-His
[2] = biological target: T2, biotin-labeled human TIGIT protein; assay: ELISA blocking assay: CD155-hFc coated, biotin-labeled human TIGIT, antibody titrated
Protocol: To evaluate the blocking effects of Hu02 and Hu06 on recombinant human TIGIT to bind to its receptor CD155, an ELISA based receptor blocking assay was used.
Briefly, microtiter plates were coated with human CD155-hFc protein at 5 µg/ml in PBS, 100 µl/well at 4° C. overnight, then blocked with 150 µl/well of 1% BSA. 50 µl biotin-labeled human TIGIT protein and 3-fold dilutions of Hu02 and Hu06 antibodies starting from 10 µg/ml at 50 µl were added to each well and incubated for 1 hour at 37° C. The plates were washed with PBS/Tween and then incubated with Streptavidin-HRP for 10 mins at 37° C. After washing, the plates were developed with TMB substrate and analyzed by spectrophotometer at OD 450 nm.

human TIGIT-His protein [3] = biological target: T1, human TIGIT-His protein; assay: ELISA, plate coated with human TIGIT-His, anti-human IgG-HRP, OD 450nm; unit taken from the axis Log[Conc.]/ng/ml
Protocol: (§1) To evaluate the antigen binding activity, Hu02 and Hu06 were subjected to ELISA test. Briefly, microtiter plates were coated with human TIGIT-his protein at 0.5 µg/ml in PBS, 100 µl/well at 4° C. overnight, then blocked with 150 µl/well of 1% BSA. Three-fold dilutions of humanized antibodies starting from 3 µg/ml were added to each well and incubated for 1 hour at 37° C. The plates were washed with PBS/Tween and then incubated with Goat-anti-human IgG antibody conjugated with Horse Radish Peroxidase (HRP) for 0.5 hour at 37° C. After washing, the plates were developed with TMB substrate and analyzed by spectrophotometer at OD 450 nm.

human TIGIT-His protein [4] = biological target: T1, human TIGIT-His protein; assay: ELISA, human TIGIT-His coated
Protocol: To evaluate the binding activity of 76D12B10, the chimeric mAb was subjected to ELISA test. Briefly, microtiter plates were coated with human TIGIT-His protein at 0.5 µg/ml in PBS, 100µl/well at 4° C. overnight, then blocked with 150 µl/well of 1% BSA. Three-fold dilutions of 76D12B10 antibodies starting from 10 µg/ml were added to each well and incubated for 1 hour at 37° C. The plates were washed with PBS/Tween and then incubated with Goat-anti-human IgG antibody conjugated with Horse Radish Peroxidase (HRP) for 30 mins at 37° C. After washing, the plates were developed with TMB substrate and analyzed by spectrophotometer at OD 450 nm.
(§2) ELISA testing was carried out to evaluate the binding of chimeric antibodies to human, mouse, rat, and cyno TIGIT, respectively. Briefly, microtiter plates were coated with human, mouse, rat and cyno TIGIT proteins at 0.5 µg/ml in PBS, 100 µl/well at 4° C. overnight, then blocked with 150 µl/well of 1% BSA. Three-fold dilutions of chimeric antibodies or biotinylated chimeric antibodies starting from 10 µg/ml were added to each well and incubated for 1 hour at 37° C. The plates were washed with PBS/Tween and then incubated with Goat-anti-human IgG Fab antibody conjugated with Horse Radish Peroxidase (HRP) or Streptavidin-HRP for 30 mins at 37° C. After washing, the plates were developed with TMB substrate and analyzed by spectrophotometer at OD 450 nm.

mouse TIGIT protein = biological target: T3, mouse TIGIT protein; assay: ELISA, mouse TIGIT coated at 0.5 µg/ml
Protocol: as §2

human TIGIT-His protein [5] = biological target: T1, human TIGIT-His protein; assay: SPR (Biacore T200), antibody captured on CM5 chip, TIGIT-His as analyte
Protocol: The binding of the 76D12B10 antibodies to recombinant TIGIT protein (human TIGIT-his tag) was tested with BIACORE™ using a capture method. The 76D12B10 mAbs was captured using CM5 chip. A series dilution of human TIGIT-his tag protein was injected over captured antibody for 1 min at a flow rate of 30 µl/min. The antigen was allowed to dissociate for 300 s. All the experiment were carried out on a Biacore T200. Data analysis was carried out using Biacore T200 evaluation software.

[6] = biological target: T4, human TIGIT expressed on cells; assay: cell-based or functional assay
human TIGIT-His protein [7] = biological target: T1, human TIGIT-His protein; assay: ELISA, plate coated with human TIGIT-His, anti-human IgG-HRP, OD 450nm; unit taken from the axis Log[Conc.]/ng/ml; remark: listed apart in the source
Protocol: as §1, with “the humanized antibodies” for “Hu02 and Hu06”, “30 mins” for “0.5 hour”

human TIGIT-His protein [8] = biological target: T1, human TIGIT-His protein; assay: SPR (Biacore T200) full kinetics, antibody captured on Protein A chip, hTIGIT-His as analyte
Protocol: The binding of the humanized antibodies to recombinant TIGIT protein (human TIGIT-his tag) was tested by BIACORE™ using a capture method. Hu02 and Hu06 mAbs were captured using Protein A chip. A serial dilution of human TIGIT-his tag protein was injected over captured antibody for 2 mins at a flow rate of 30 µl/min. The antigen was allowed to dissociate for 1800 s. All the experiment were carried out on a Biacore T200.

Row | Kd (human TIGIT-His protein [1]) | koff (human TIGIT-His protein [1]) | kon (human TIGIT-His protein [1]) | IC50 [2] | EC50 (human TIGIT-His protein [3]) | EC50 (human TIGIT-His protein [4]) | binding result (mouse TIGIT protein) | Kd (human TIGIT-His protein [5]) | koff (human TIGIT-His protein [5]) | kon (human TIGIT-His protein [5]) | NFAT luciferase production, EC50 [6] | EC50 (human TIGIT-His protein [7]) | Kd (human TIGIT-His protein [8]) | koff (human TIGIT-His protein [8]) | kon (human TIGIT-His protein [8]) | Binder
1 | 0.0161 nM | 0.000182 s⁻¹ | 1.13e+07 M⁻¹ s⁻¹ | 1110 ng/mL | 7.6 ng/mL | 8.57 ng/mL | no binding | 0.259 nM | 0.000326 s⁻¹ | 1.26e+06 M⁻¹ s⁻¹ | 1.24 nM | 9.37 ng/mL |  |  |  | 76D12B10 chimeric antibody (antibody, V domains shown, Mouse variable regions of hybridoma clone 76D12B10; tested as chimeric mAb (detected with anti-human IgG); also called 76D12B10-Chimera; 76D12B10 chimera) VH: DVQLQESGPGMVKPSQSLSLTCTATGYSITSGYDWHWIRHFPGKKLEWMGFIRDSGSTVYNPSLKGRISITHDTSKNRFFLKLNSVTPEDTATYFCARGLFWYFDVWGTGTTVTVSS VL: DIQMTQSPASLSASVGETVTITCRTSENIFSYLAWYQQKQGNSPQLLVHNTKTLAEGVPSRFSGSGSGTQFSLKISNLQPEDFGSYYCQHHYGNPLTFGAGTKLELK
2 | 0.0196 nM | 9.74e-05 s⁻¹ | 4.98e+06 M⁻¹ s⁻¹ | 1130 ng/mL | 8.23 ng/mL |  |  |  |  |  | 1.76 nM | 10.2 ng/mL | 0.0462 nM | 9.27e-05 s⁻¹ | 2e+06 M⁻¹ s⁻¹ | 76D12B10-Hu02 (antibody, V domains shown, Humanized, VH.V2 + VK.V0) VH: EVQLQESGPGLVKPSETLSLTCAVSGYSISSGYDWHWIRQPPGKGLEWIGFIRDSGSTVYNPSLKGRITISHDTSKNQFSLKLSSVTAADTAVYYCARGLFWYFDVWGQGTTVTVSS VL: DIQMTQSPSSLSASVGDRVTITCRTSENIFSYLAWYQQKPGKVPKLLIYNTKTLAEGVPSRFSGSGSGTDFTLTISSLQPEDVATYYCQHHYGNPLTFGQGTKLEIK
